# Assay results from the supplement of paper PMC9170038.
# Test system: MS2 coat protein
# Experiment: apparent KD of MS2 coat protein; designed switch direction (-1 OFF switch, 1 ON switch): -1; higher = weaker reporter binding
# Procedure, shortened: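 The reported apparent KD is a per-design median over clusters, from curve fits of normalised cluster fluorescence. Protein titrations used SNAP-549-labelled MS2 coat protein, doubled from 0.7 or 1.5 nM to 3 µM, in Tris-HCl pH 7.5 buffer with KCl, MgCl2, BSA, DTT, tRNA and Tween-20, with no input, 200 uM small-molecule ligand, or an oligonucleotide input. The RNA switches were transcribed on Illumina chips by stalled E. coli RNA polymerase.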
# [1] = input ligand: microRNA oligo, concentration not stated
# [2] = Eterna round: R95, input ligand: microRNA oligo, concentration not stated
# [3] = Eterna round: R95, input ligand: FMN 200 uM
# [4] = Eterna round: R95, input ligand: none
Sequence,apparent KD of MS2 coat protein (input ligand: FMN 200 uM) [nM],apparent KD of MS2 coat protein (input ligand: none) [nM],apparent KD of MS2 coat protein [2] [nM],other results
"CUUGUUUAUGUAGGAUAUACAUGAGGAUCACCCAUAGAAGGACAUGAGGAUCACCCAUGUAUUGCGGUCUGCGUUCAGAUCGCA [salish99_ExNG1_r04_101] (Eterna round: R96, puzzle: Exclusion NG 1)",337,335,,apparent KD of MS2 coat protein [1]: 298 nM
"GAUAGUGGAGGAUAUACAUGAGGAUCACCCAUGUGAAGUUGCGUAAGUGACCCUUCCUGUAGAAGGCCAAGCAA [Eternabot (Original) Solution 31] (Eterna round: R97, puzzle: Exclusion 3)",256,31.9,,
"ACAUGAGGAUCACCCAUGUCCGUCUGGUCUGUCUCGGCUGUCGAGGAUAUAGCUCGGUAUCCGCGCUAGAAGGCGGGAGUCGGA [Aenatbe mod 94] (Eterna round: R96, puzzle: Exclusion NG 3)",24.3,32.3,,apparent KD of MS2 coat protein [1]: 24.2 nM
"CGACGACAUGAGGAUCACCCAUGUCAGGAUAUGGAAAACCAGAAUAUAUUUUAACUUUCCAGAAGGGACAGGUC [Eternabot (Original) Solution 1] (Eterna round: R97, puzzle: Exclusion 1)",19.6,18.1,,
CCGCAAAAUGAGGAUAUCGUAUCGGAUACGAUACGAGAAGGCGUAACAUGAGGAUCACCCAUGUGUCCUAGCGG [Fiskers Ex 6 - 35] (puzzle: Exclusion 6),,,13.5,
"AAGGGUACUUUCAGAACGACAUGAGGAUCACCCAUGUAGACUGAGGAUAUCUGCUACUAAGGACGGGAGAAGGCAGUGUAAUGU [Ex NG3 #74] (Eterna round: R96, puzzle: Exclusion NG 3)",10.6,14.2,,apparent KD of MS2 coat protein [1]: 11.1 nM
AAUAACAGAGGAUAUACUGUUUUAUGUGUUUGUUGUUUUGAACAUGAGGAUCACCCAUGUAGAAGGCUGAUUAA [JMF 53] (puzzle: Exclusion 2),,,31.6,
"CAUUAUUAUCGAGGAUAUCCUAUUGAAAUUCUGGGAGAAGGCGGACUCAACAUGAGGAUCACCCAUGUGAGACGGGUGCUAGGG [Ex NG1 #26] (Eterna round: R96, puzzle: Exclusion NG 1)",,,,apparent KD of MS2 coat protein [1]: 19.6 nM
"UGUUGUUACGCAGGAUAUGAGGAUCACCCAUAUUAGGAUAUCGAAAGAGAAGUUCUGAGGAUCACCCAGAAGGGCGGGUUAACA [pwkr exNG2 2xF5 2xFMN.35] (Eterna round: R96, puzzle: Exclusion NG 2)",117,53.2,,apparent KD of MS2 coat protein [1]: 37.8 nM
"AGGAUCCUAGGAUAUGCUGGGUAUCGCUGUCGGAGGGACAGACAUGAGGAUCACCCAUGUAGAAGGAGGCGCUC [Eternabot (L1) Solution 5] (Eterna round: R97, puzzle: Exclusion 2)",3680,667,,
"CAGGUGUGAGGAUAUGUGAUUAUGAUAGACCGAGUCUACCCACAGAAGGCACAUGAGGAUCACCCAUGUGAGUA [Eternabot (L1) Solution 75] (Eterna round: R97, puzzle: Exclusion 4)",122,46.6,,
"CAGUACUGAGGAUAUACAUGAGGAUCACCCAUGUGUUUUCUAUUAGGAAACUAGUUAUGUAGAAGGCAGUACUG [Omei Ex3 Mod of Eli 4.27 v11] (Eterna round: R97, puzzle: Exclusion 3)",304,40,,
"UUAAAUCAUGUAGGAUAUGCAAGGCGAACCUAUGCAGAAGGACAUGAGGAUCACCCAUGUGCUGCGGUCUGCGUACAGAUCGCU [JL ENG1 1.02] (Eterna round: R96, puzzle: Exclusion NG 1)",503,39,,apparent KD of MS2 coat protein [1]: 30.7 nM
"AGUAACUAUCACGAAAGUGAUAGUUACAAUAGCAGUGAAACAUGAGGAUCACCCAUGUCCUCAUUUGCUCGUCUUAU [Sensor 3 - 23] (puzzle: Sensor v3, turn-off variant 2)",,,566,apparent KD of MS2 coat protein [3]: 49.6 nM; apparent KD of MS2 coat protein [4]: 61.2 nM
AAGGAUAGAGGAUAUACAUAGAUACAGAUUCAUGUAAUCCUACAUGAGGAUCACCCAUGUAGAAGGCUAUCCUA [Fiskers Ex 2 - 15] (puzzle: Exclusion 2),,,14.5,
UCUUAUUGCAAGGAUAUGCAAUUUAUUUUUUAUGCAGAAGGUGCAACAUGAGGAUCACCCAUGUUUCCGGGCAU [JR_E6_Sub037] (puzzle: Exclusion 6),,,13.5,
"ACAACAAGCUUUUUGUUCGUAGAACAUGAUGCUCUAGUCACAUGAGGAUCACCCAUGUCAGCCAGUUAGAUAGGUGA [JR_SV3TOV2_Sub064] (Eterna round: R96, puzzle: Sensor v3, turn-off variant 2)",96.7,86,,apparent KD of MS2 coat protein [1]: 133 nM
AAACGUGCGAAGGAUAUCCAUCCACCCUGGAAAGGAGAAGGUCGCACAUGAGGAUCACCCAUGUGUGCCUAAAA [Zalave] (puzzle: Exclusion 6),,,11.4,apparent KD of MS2 coat protein [3]: 26.6 nM; apparent KD of MS2 coat protein [4]: 11.8 nM

Sequence,apparent KD of MS2 coat protein (input ligand: FMN 200 uM) [nM],apparent KD of MS2 coat protein (input ligand: none) [nM],apparent KD of MS2 coat protein [2] [nM],other results
"GGCCCGGGAGGAUAUACAUGAGGAUCACCCAUGUUGAAGUUGAAGAUCUUCGGCUUCGGUAGAAGGCCCGGGCC [-35, -32.8 kcal, 23% A, 3, 0] (Eterna round: R97, puzzle: Exclusion 3)",18.2,13.6,,
"UUUACAAGCUAUAGAUCCCACAUGAGGAUCACCCAUGUUGCUGCCGUGAGGUAGCUUUUAACUAUUGCUCGUCUUAU [JL TOV1 3.36] (Eterna round: R97, puzzle: Sensor, turn-off variant 1)",150,181,,
"UGCAUGUGAGGAUAUGGCGCUCGAUUGCGGAAGGAGCGAGUUUAGAAGGUACAUGAGGAUCACCCAUGUCACGU [Eternabot (L2) Solution 97] (Eterna round: R97, puzzle: Exclusion 4)",21.6,25.9,,
UCGGCGCGAGGAUAUACGUUUGCUUUUUGGGAUCGUUGCGUACAUGAGGAUCACCCAUGUAGAAGGCGCGCCGC [Apr-15 SS2-26] (puzzle: Exclusion 2),,,15.9,
UCUUAUUGCAAGGAUAUGCUAUUUAUUUUUUUUGCAGAAGGUGCAACAUGAGGAUCACCCAUGUUUCCGGGCAU [JR_E6_Sub036] (puzzle: Exclusion 6),,,20.3,
UCAUACGAUGAGGAUAUCUCAGUUAAAGUAUUUAGAGAAGGCGUUACAUGAGGAUCACCCAUGUUUAUGGGCAU [Ex-6 Malc#7] (puzzle: Exclusion 6),,,121,apparent KD of MS2 coat protein [3]: 178 nM; apparent KD of MS2 coat protein [4]: 190 nM
AAUAACAGAGGAUAUACUGUUUUAUGUGUUUGUUAUUUUGAACAUGAGGAUCACCCAUGUAGAAGGCUGAGUAA [JMF 37] (puzzle: Exclusion 2),,,23.6,
UUUUAACAUGAGGAUCACCCAUGUGAGGAUAUCGUUAUUUUUAUUAAUAUUAAUAAAACGAGAAGGCACAUUUU [JMF 14] (puzzle: Exclusion 1),,,98.3,
"UCUUAUUGAGGAUAUACAUUAAAAUACAUGAGGAUCACCCAUGUUCUUCAAUGUAUAUAUGUAGAAGGCAGAAUAU [Mat - Exclusion 5 - JL Mod - D27] (Eterna round: R97, puzzle: Exclusion 5)",61.2,28.8,,
"GGUGGGCUAGGAUAUGCUUUGGGCAGGCAUUCCUUCGAUAAACUUGAGGAUCACCCAAGUAGAAGGAGCUUGCC [salish99_ex2_r4_025] (Eterna round: R97, puzzle: Exclusion 2)",10.8,10.7,,
"AUUGUAUGAUACCUCUAAUACAUGAGGAUCACCCAUGUUAUCGAGGAUAUGCAGAAUAGAUUAGAGCAGAAGGCGAAGUAAUAU [JR_ExcNG3_Sub025] (Eterna round: R96, puzzle: Exclusion NG 3)",15,13.6,,apparent KD of MS2 coat protein [1]: 9.08 nM
CUGGUCCGAGGAUAUAUUAUGUGAAACAUGAGGAUCACCCAUGUAAUAUGAUGGAUGAAAAUAGAAGGCGGACUAG [Mat - Exclusion 5 - JL mod - D30] (puzzle: Exclusion 5),,,43.5,apparent KD of MS2 coat protein [3]: 36.2 nM; apparent KD of MS2 coat protein [4]: 61 nM
"UUCGGCGCAGGAUAUACAGUUCUGUGUUGAAUCGGCGCGGGACAUGAGGAUCACCCAUGUAGAAGGGUGUUGGG [-26.9, -23.2 kcal, A 22%] (Eterna round: R97, puzzle: Exclusion 2)",220,538,,
"ACGCUAUGAGGAUAUACAUGAGGAUCACCCAUGUCCCGAUGGUGUUUCCAUUGGAGACGUAGAAGGUAUGGUUA [Eternabot (L2) Solution 13] (Eterna round: R97, puzzle: Exclusion 3)",169,172,,
"UUAAUGGCUGUGAGGAUAUCGGAUAGAUAGAUAUUCGAGAAGGCACAUGAGGAUCACCCAUGUGUGAUCAGAGA [Brourd's EX4 #62] (Eterna round: R97, puzzle: Brourd's mod of Exclusion 4)",466,144,,
"GUCAGCUCGUGAGGAUAUACAUGAGGAUCACCCAUGUGAUCAAUAGCAGCUUCGGCUGCAUACAUGUAGAAGGCACGAGCUGAU [ENG2/6-A2] (Eterna round: R96, puzzle: Exclusion NG 2)",,,,apparent KD of MS2 coat protein [1]: 27.5 nM
"UCAACGCAAGGAUAUACUUGCGGUGAUGUUCGAAUUCUUCUACUUGAGGAUCACCCAAGUAGAAGGUGCGAUGA [jl-ex2.4.62 ViennaUCT mod] (Eterna round: R97, puzzle: Exclusion 2)",12.5,13.4,,
UUAUACGUUGAGGAUAUGUCAUUUAGUAUAGUUACAGAAGGCGAUACAUGAGGAUCACCCAUGUUUAUGGGCAU [Ex-6 Malc#2] (puzzle: Exclusion 6),,,166,
